According to patent US20250375497A1 (UNIVERSITY OF VIRGINIA PATENT FOUNDATION, published 2025):

Molecular target: T1, Myc-tagged barley CslF6 (barley (Hordeum vulgare subsp. vulgare))
T1 construct: also called Myc-tagged CslF6 species; not shown: Myc tag
T1 chain: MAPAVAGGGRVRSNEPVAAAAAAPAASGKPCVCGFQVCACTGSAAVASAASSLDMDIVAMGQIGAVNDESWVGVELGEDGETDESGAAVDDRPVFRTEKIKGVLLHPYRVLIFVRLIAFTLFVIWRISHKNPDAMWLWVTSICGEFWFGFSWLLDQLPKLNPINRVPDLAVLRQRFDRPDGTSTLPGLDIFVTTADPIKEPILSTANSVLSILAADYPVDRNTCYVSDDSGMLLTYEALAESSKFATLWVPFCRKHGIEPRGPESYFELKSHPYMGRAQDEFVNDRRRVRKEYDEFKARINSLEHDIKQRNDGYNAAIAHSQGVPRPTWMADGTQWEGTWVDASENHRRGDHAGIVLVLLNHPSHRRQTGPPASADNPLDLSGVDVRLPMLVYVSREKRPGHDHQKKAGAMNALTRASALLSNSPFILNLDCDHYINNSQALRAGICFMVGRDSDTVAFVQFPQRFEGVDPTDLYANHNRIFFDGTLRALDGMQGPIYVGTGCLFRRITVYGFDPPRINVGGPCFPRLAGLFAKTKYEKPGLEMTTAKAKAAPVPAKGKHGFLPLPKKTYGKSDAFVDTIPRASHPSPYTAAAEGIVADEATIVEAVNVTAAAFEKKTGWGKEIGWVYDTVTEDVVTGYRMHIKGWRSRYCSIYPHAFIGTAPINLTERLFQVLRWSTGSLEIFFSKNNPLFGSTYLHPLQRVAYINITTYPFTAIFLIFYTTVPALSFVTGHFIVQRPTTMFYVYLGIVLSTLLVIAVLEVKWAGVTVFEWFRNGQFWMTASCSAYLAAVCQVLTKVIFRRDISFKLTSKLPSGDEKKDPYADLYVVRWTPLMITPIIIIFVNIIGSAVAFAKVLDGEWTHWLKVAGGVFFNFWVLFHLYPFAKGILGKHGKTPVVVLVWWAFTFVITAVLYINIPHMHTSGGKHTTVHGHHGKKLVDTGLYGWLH
Experiment: co-purification of His- and Myc-tagged CslF6

- binding result: no binding
B1: barley (Hordeum vulgare) cellulose synthase-like CslF6 with N-terminal 12xHis tag (enzyme)
chain: T1 chain
notes: Expressed in Sf9 insect cells and purified in detergent (LMNG/CHS, then GDN); also called HvCslF6; His-tagged CslF6; not shown: N-terminal 12xHis tag
